Data as given in paper PMC4825002, “Fibromodulin Interacts with Collagen Cross-linking Sites and Activates Lysyl Oxidase*” (The Journal of Biological Chemistry, 2016).

Tests used:
[1] = molecular target: T1, recombinant lysyl oxidase protein (Origene) (UniProt P28300 22-417); test: ELISA; solid-phase assay: FMOD variants coated; serial dilutions of LOX; detected with anti-LOX antibody; apparent KD; details: both partners purified
T1 construct: lysyl oxidase; the functional rows use this molecule for it; source: bought: Origene
T1 sequence (looked up): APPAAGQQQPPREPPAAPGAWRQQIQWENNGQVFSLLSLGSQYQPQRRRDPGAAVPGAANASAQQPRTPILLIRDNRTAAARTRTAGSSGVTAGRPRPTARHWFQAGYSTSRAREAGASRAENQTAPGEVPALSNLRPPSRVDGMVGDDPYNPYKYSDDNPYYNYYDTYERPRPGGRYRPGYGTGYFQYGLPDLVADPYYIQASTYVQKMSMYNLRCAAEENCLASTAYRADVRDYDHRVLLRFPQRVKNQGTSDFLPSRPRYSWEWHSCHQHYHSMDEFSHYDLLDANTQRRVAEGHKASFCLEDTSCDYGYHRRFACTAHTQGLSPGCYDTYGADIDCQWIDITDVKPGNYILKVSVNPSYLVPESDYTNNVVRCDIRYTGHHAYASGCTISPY

[2] = molecular target: T2, acetic acid-extracted tail tendon mouse collagen I (mouse, UniProt P11087 152-1207; Q01149 86-1125); test: ELISA; solid-phase assay: collagen coated at 10 μg/ml in PBS; serially diluted FMOD or LOX; detected with anti-His tag or anti-LOX antibodies; apparent KD; details: both partners purified
T2 construct: collagen I alpha1 chain, mouse, tissue-extracted; collagen I alpha2 chain, mouse, tissue-extracted; also called collagen type I; full-length collagen; source: extracted from mouse tail tendons using 20 mM acetic acid
T2 sequence (P11087 152-1207, chain 1 of 2): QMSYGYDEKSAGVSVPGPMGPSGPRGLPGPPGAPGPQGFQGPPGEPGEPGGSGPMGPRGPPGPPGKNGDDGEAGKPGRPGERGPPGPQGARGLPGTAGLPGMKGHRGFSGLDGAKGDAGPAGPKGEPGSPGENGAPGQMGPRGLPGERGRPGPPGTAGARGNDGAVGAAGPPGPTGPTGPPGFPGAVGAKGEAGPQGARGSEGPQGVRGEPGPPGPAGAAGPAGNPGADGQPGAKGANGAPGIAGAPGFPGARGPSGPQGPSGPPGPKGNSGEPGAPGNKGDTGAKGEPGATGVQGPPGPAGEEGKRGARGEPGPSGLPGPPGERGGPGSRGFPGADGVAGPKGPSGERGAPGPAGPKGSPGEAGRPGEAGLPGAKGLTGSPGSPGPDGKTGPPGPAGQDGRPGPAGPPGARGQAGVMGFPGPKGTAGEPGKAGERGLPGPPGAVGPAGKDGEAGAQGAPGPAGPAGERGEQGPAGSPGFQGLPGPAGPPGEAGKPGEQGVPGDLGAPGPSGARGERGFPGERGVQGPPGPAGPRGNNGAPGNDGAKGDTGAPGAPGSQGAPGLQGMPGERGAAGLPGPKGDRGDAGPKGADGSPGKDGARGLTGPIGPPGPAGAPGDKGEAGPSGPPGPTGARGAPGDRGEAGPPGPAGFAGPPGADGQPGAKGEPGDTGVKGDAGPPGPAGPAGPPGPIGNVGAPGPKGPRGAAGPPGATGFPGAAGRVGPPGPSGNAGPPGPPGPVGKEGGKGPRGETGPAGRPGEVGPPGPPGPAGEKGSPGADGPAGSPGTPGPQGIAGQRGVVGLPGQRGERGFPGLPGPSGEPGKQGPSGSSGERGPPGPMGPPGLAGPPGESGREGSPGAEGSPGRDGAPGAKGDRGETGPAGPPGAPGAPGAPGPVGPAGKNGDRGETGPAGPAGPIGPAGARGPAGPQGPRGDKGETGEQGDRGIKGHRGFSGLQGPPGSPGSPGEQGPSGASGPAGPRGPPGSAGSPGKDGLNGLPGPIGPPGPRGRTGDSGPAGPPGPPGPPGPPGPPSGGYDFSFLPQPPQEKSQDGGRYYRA
T2 sequence (Q01149 86-1125, chain 2 of 2): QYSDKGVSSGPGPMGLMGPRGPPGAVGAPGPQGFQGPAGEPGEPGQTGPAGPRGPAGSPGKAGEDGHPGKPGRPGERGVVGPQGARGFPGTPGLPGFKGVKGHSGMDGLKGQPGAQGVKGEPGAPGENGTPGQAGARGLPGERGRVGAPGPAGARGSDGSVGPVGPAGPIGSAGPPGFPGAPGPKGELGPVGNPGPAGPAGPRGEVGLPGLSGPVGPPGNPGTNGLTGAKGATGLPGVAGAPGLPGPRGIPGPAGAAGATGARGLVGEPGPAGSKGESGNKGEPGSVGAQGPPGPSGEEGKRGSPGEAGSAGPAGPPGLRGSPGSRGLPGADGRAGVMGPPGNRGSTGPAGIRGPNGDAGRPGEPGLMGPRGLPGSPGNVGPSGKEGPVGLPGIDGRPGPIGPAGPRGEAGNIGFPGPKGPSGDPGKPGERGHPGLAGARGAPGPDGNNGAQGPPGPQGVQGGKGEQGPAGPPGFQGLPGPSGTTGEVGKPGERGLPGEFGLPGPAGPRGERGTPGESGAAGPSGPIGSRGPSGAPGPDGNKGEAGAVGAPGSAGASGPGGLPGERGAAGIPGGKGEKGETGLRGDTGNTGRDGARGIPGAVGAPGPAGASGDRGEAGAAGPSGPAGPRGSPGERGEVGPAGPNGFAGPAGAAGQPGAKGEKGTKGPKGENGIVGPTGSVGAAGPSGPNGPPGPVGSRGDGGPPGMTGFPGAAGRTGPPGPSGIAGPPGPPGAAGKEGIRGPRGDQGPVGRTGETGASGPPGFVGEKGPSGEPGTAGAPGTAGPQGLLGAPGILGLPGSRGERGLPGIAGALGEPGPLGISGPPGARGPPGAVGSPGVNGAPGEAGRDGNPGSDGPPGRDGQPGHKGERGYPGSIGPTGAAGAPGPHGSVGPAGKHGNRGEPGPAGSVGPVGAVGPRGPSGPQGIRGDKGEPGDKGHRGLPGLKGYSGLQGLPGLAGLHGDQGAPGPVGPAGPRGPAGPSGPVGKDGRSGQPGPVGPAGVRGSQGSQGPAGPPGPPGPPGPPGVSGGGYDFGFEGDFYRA

B1: His tag-modified recombinant fibromodulin (human, amino acids 19–376) (natural protein, UniProt Q06828 19-376, looked up)
chain: QYEDDPHWWFHYLRSQQSTYYDPYDPYPYETYEPYPYGVDEGPAYTYGSPSPPDPRDCPQECDCPPNFPTAMYCDNRNLKYLPFVPSRMKYVYFQNNQITSIQEGVFDNATGLLWIALHGNQITSDKVGRKVFSKLRHLERLYLDHNNLTRMPGPLPRSLRELHLDHNQISRVPNNALEGLENLTALYLQHNEIQEVGSSMRGLRSLILLDLSYNHLRKVPDGLPSALEQLYMEHNNVYTVPDSYFRGAPKLLYVRLSHNSLTNNGLASNTFNSSSLLELDLSYNQLQKIPPVNTNLENLYLQGNRINEFSISSFCTVVDVVNFSKLQVLRLDGNEIKRSAMPADAPLCLRLASLIEI
modifications: tyrosine sulfation (positions not given)
notes: fibromodulin, human, amino acids 19-376; also called FMOD; full-length FMOD; source: 293T cells (pCEP4 vector), purified (Ni-NTA-Sepharose, Superose 6)
Work on B1 yielded a Kd [1] of about 150 nM and a Kd [2] of about 250 nM.
